What was measured:
FGF2/PTX3 interaction = biological target: T1, FGF2/PTX3 interaction (Homo sapiens, UniProt P09038+P26022); assay: Solid phase binding assay, biotinylated PTX3 (bPTX3) binding to immobilized FGF2 with competitors; settings: bPTX3 22 nM, competitor 10 fold-molar excess (220 nM)
T1 construct: biotinylated PTX3 (bPTX3, 22 nM) in the absence or in the presence of a 10 fold-molar excess of full length PTX3; made in house; host or cells: FGF2: E. coli; PTX3: Chinese hamster ovary cells
Experimental: ELISA microplates were incubated for 16 hours at 4° C. with 100 μl/well of 100 mM NaHCO3, pH 9.6 (coating buffer) containing FGF2 (270 nM). Then, wells were overcoated for 2 hours at room temperature with 5% dry milk in coating buffer. […] Then, 100 μl/well of the chromogen substrate 2,29-azinobis(3-ethylbenzthiazolinesulfonic acid) were added. Absorbance values were read at 405 nm in an automatic ELISA reader. In some experiments, 100-μl aliquots of PBS containing biotin-labeled PTX3 (bPTX3) (22 nM) were incubated for 30 minutes at 37° C. onto FGF2-coated wells with or without competitors. Then, wells were washed, and the amount of bound bPTX3 was evaluated as described^17. Alternatively, synthetic PTX3 peptides were immobilized on ELISA microplate wells (200 μg/well) as described above. Then, FGF2 (80 nM) was added and FGF2 bound to immobilized peptides was assessed by 1 hour incubation at 37° C. with a rabbit polyclonal anti-FGF2 antibody (1:7000) followed by immunocomplex detection as described above.

MAE cells = assay: Cell proliferation assay, retrovirus infected MAE cells stimulated with FGF2; format: cell-based, murine; settings: retroviral overexpression in MAE cells, FGF2 0.55 nM, 48 h
From the text: The cDNAs encoding for human PTX3 and for the enhanced green fluorescent protein (EGFP) were obtained as described^17. The cDNAs encoding for the N-terminal fragment PTX3(1-178) (Nterm-PTX3) and the C-terminal fragment PTX3(179-381) fused to the leader sequence for secretion PTX3(1-17) (sCterm-PTX3) were generated from pLX-PTX3^17 by PCR and standard cloning techniques. All cDNAs were cloned in the pBABE retroviral vector thus generating pBABE-PTX3, pBABE-Nterm-PTX3, pBABE-sCterm-PTX3, and pBABE-EGFP that were used to transfect the EcoPack2-293 packaging cells in the presence of Lipofectamin 17. Transduced cells were selected with puromycin (1 μg/ml, Sigma) for 2 weeks. Clones with a viral titer higher than […] were used for further experimentation. Confluent cultures of MAE cells were then incubated for 24 hours with the conditioned medium from pBABE-PTX3, pBABE-Nterm-PTX3, PBABE-sCterm-PTX3, or pBABE-EGFP packaging cells in the presence of polybrene (8 μg/ml, Sigma). Infected cell populations were selected for 7 days with puromycin. […] To assess the levels of transgene protein expression and release by infected cells, cell cultures were grown under serum-free conditions for 2 days. […]
Cell proliferation assay on endothelial cells was performed as described^22. […] After 24 or 48 h, respectively, cells were trypsinized and counted in a Burker chamber.

FGF2 [1] = biological target: T2, FGF2 (Homo sapiens, UniProt P09038); assay: Solid phase binding assay, FGF2 binding to immobilized synthetic PTX3 peptides; design: made in house; host or cells: E. coli; settings: peptides 200 μg/well, FGF2 80 nM
Experimental: (§1) ELISA microplates were incubated for 16 hours at 4° C. with 100 μl/well of 100 mM NaHCO3, pH 9.6 (coating buffer) containing FGF2 (270 nM). Then, wells were overcoated for 2 hours at room temperature with 5% dry milk in coating buffer. […] Then, wells were sequentially incubated for 1 hour at 37° C. with a rabbit polyclonal anti-PTX3 antibody (1:2000 dilution) that recognizes both PTX3 fragments with similar efficiency in Western blot and ELISA, an anti-rabbit biotinylated antibody (1:2000), and 100 μl of streptavidin-horseredish peroxidase (1:5000, Amersham) for 1 hour at room temperature. Then, 100 μl/well of the chromogen substrate 2,29-azinobis(3-ethylbenzthiazolinesulfonic acid) were added. Absorbance values were read at 405 nm in an automatic ELISA reader. In some experiments, 100-μl aliquots of PBS containing biotin-labeled PTX3 (bPTX3) (22 nM) were incubated for 30 minutes at 37° C. onto FGF2-coated wells with or without competitors. Then, wells were washed, and the amount of bound bPTX3 was evaluated as described^17. Alternatively, synthetic PTX3 peptides were immobilized on ELISA microplate wells (200 μg/well) as described above. Then, FGF2 (80 nM) was added and FGF2 bound to immobilized peptides was assessed by 1 hour incubation at 37° C. with a rabbit polyclonal anti-FGF2 antibody (1:7000) followed by immunocomplex detection as described above.
Target sequence in this assay (P09038 134-288): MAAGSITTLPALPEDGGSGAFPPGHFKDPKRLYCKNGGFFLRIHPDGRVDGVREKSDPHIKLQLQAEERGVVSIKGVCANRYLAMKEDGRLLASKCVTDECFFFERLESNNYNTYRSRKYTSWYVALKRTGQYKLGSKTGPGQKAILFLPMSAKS

FGF2 [2] = biological target: T2, FGF2; assay: Solid phase binding assay, PTX3 proteins on FGF2-coated wells; design: made in house; host or cells: E. coli; settings: proteins at 44 nM, 30 minutes at 37° C.
Experimental: as §1
Target sequence in this assay (P09038 134-288): as above

FGF2 [3] = biological target: T2, FGF2; assay: BIAcore binding assay, FGF2 binding to PTX3 immobilized to a sensorchip; design: made in house; host or cells: FGF2: E. coli; PTX3: Chinese hamster ovary cells
Experimental: A BIAcore X apparatus (BIAcore Inc, Piscataway, N.J.) was used. Surface plasmon resonance was exploited to measure changes in refractive index caused by the ability of FGF2 to bind to PTX3 immobilized to a BIAcore sensorchip. To this purpose, PTX3 (2.2 μM) was allowed to react with a flow cell of a CM4 sensorchip that was previously activated with 50 μl of a mixture of 0.2 M N-ethyl-N′-(3-dimethylaminopropyl)-carbodiimide hydrochloride and 0.05 M N-hydroxysuccinimide. These experimental conditions allowed the immobilization of 5,000 resonance units (RUs), corresponding to approximately 0.1 pmoles of PTX3. Similar results were obtained for immobilization of gelatin, here used as a negative control and for blank subtraction. Increasing concentrations of FGF2 with or without synthetic PTX3 peptides were then injected in dilution buffer (PBS plus 0.005% surfactant P20, 5.0 μg/mL CaCl2 and MgCl2) over the PTX3 surface for 4 minutes (to allow their association with immobilized PTX3) and then washed until dissociation was observed.
Target sequence in this assay (P09038 134-288): as above

GM7373 cells = assay: Cell proliferation assay, endothelial GM7373 cells; format: cell-based, bovine; settings: FGF2 0.55 nM; for inhibition of FGF2 mitogenic activity by conditioned medium of infected MAE cells: 24 h
Experimental: Cell proliferation assay on endothelial cells was performed as described^22. Briefly, GM7373 or MAE cells were seeded in 96-well dishes at 75,000 cells/cm^2 or 25,000 cells/cm^2, respectively. After 16 h, cells were incubated in fresh medium containing 0.4% FCS plus FGF2 (0.55 nM) in the absence or in the presence of different antagonists. After 24 or 48 h, respectively, cells were trypsinized and counted in a Burker chamber.

FGF2 [4] = biological target: T2, FGF2; settings: cited from earlier work
Target sequence in this assay (P09038 143-288): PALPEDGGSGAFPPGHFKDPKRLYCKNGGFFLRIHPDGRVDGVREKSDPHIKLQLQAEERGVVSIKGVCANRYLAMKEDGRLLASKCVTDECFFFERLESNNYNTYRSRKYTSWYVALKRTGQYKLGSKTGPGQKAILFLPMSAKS

T1 sequence (P09038 134-288): as the sequence (P09038 134-288) above
T1 sequence (P26022 18-381): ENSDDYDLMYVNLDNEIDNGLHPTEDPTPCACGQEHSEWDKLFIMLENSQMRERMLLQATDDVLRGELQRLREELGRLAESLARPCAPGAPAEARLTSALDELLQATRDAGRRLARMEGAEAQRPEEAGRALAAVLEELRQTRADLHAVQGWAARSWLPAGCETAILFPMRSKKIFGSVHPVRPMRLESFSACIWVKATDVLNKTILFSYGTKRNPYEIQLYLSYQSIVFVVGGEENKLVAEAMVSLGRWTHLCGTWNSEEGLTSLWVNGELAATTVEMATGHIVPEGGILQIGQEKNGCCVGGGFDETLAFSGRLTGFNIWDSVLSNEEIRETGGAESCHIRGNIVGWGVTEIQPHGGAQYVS

binding to FGF2 immobilized to non-tissue culture plastic (FGF2 [2])	Molecule	capacity of infected cells to proliferate in response to exogenous FGF2 (MAE cells)	inhibition of FGF2 mitogenic activity by conditioned medium of infected MAE cells (GM7373 cells)	FGF2 binding (FGF2 [4])	other results
showed the capacity to bind FGF2	PTX3: Human recombinant PTX3 (swiss-prot P26022) expressed in Chinese hamster ovary cells; long-pentraxin	significant decrease	significant inhibition		prevention of bPTX3 binding to immobilized FGF2 (FGF2/PTX3 interaction): prevents the capacity of bPTX3 to bind immobilized FGF2; prevention of bPTX3 binding to immobilized FGF2 (FGF2/PTX3 interaction; listed as full length PTX3): prevented the binding; binding of free FGF2 to immobilized peptide or PTX3 (FGF2 [1]): binds; FGF2 bound at the end of the injection phase (FGF2 [3]; FGF2 0.8 μM over immobilized PTX3): 350-400 RU; kinetic dissociation constant (koff) of FGF2/PTX3 interaction (FGF2 [3]; FGF2 0.1 to 1.1 μM over immobilized PTX3): 6e-05 s⁻¹; inhibition of mitogenic activity exerted by FGF2 (GM7373 cells; peptides 66 μM, PTX3 220 nM): inhibit
	SAP: classical short-pentraxin serum amyloid P component			inefficient FGF2 binders	
	CRP: classical short-pentraxin C-reactive protein			inefficient FGF2 binders	
No interaction	Cterm-PTX3: recombinant 6×His-tagged C-terminal fragment of PTX3 from E. coli (protein) CETAILFPMRSKKIFGSVHPVRPMRLESFSACIWVKATDVLNKTILFSYGTKRNPYEIQLYLSYQSIVFVVGGEENKLVAEAMVSLGRWTHLCGTWNSEEGLTSLWVNGELAATTVEMATGHIVPEGGILQIGQEKNGCCVGGGFDETLAFSGRLTGFNIWDSVLSNEEIRETGGAESCHIRGNIVGWGVTEIQPHGGAQYVSHHHHHH				
	sCterm-PTX3: C-terminal fragment PTX3(179-381) fused to the leader sequence for secretion PTX3(1-17) (protein) CETAILFPMRSKKIFGSVHPVRPMRLESFSACIWVKATDVLNKTILFSYGTKRNPYEIQLYLSYQSIVFVVGGEENKLVAEAMVSLGRWTHLCGTWNSEEGLTSLWVNGELAATTVEMATGHIVPEGGILQIGQEKNGCCVGGGFDETLAFSGRLTGFNIWDSVLSNEEIRETGGAESCHIRGNIVGWGVTEIQPHGGAQYVS	No inhibition	ineffective		

Reference: patent US8076300B2, “FGF2-binding peptides and uses thereof” (Tecnogen S.p.A., priority 2006, dated 2011)
